We go through two molecules from article PMC7000336, “Structural insights and activating mutations in diverse pathologies define mechanisms of deregulation for phospholipase C gamma enzymes” (EBioMedicine, 2020).

For experiment [1], the target named is PLCγ1 (Homo sapiens) (UniProt P19174). The settings on record: cited from earlier work.
Experiment [2] addresses T1, Full-length human PLCγ1 (human, UniProt P19174 1-1290).
T1 construct: phospholipase C gamma 1 (PLCγ1), human, full length; YFP fusions are named only for the lipid array (LiMA), so Myc is surmised here; Cloned in a Gateway-modified pTriEx4 and purified as a His-tagged protein; No removal of tags is described; also called hPLCγ1; intact PLCγ1; source: Freestyle 293F cells, transfected, purified (HisTrap, Superdex 200)
T1 sequence (looked up): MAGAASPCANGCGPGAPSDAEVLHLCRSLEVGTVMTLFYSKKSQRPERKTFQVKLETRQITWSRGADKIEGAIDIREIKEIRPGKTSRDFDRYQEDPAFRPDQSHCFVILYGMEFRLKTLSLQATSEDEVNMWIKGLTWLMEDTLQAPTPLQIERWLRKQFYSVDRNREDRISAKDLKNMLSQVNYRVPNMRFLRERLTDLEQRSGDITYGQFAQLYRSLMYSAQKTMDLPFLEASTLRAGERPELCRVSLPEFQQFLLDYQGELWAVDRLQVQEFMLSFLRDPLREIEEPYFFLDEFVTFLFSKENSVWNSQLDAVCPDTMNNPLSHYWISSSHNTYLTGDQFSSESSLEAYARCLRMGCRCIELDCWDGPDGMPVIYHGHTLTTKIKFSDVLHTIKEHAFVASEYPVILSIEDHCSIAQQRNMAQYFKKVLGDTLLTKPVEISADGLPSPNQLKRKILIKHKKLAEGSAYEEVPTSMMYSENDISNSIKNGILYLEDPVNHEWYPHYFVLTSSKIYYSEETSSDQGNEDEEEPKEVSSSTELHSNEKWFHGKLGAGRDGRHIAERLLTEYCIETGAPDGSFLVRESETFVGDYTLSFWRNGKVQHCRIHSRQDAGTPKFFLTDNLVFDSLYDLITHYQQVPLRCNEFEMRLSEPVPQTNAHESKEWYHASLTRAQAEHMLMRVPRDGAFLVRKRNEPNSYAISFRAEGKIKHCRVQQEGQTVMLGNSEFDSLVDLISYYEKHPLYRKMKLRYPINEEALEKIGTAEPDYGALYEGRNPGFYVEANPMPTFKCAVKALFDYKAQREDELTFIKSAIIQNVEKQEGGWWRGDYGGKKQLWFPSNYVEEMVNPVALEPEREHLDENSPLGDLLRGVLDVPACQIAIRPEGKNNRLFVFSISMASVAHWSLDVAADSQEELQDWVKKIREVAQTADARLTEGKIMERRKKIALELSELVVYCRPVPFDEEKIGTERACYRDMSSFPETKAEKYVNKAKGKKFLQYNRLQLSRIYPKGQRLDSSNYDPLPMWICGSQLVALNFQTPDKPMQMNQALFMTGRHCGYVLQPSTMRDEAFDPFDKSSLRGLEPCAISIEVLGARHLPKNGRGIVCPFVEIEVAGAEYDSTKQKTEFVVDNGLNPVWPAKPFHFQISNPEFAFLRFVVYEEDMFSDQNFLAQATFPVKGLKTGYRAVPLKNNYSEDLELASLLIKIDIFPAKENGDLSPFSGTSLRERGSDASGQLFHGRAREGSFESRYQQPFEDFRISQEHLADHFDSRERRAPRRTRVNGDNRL
The experiment in a line: cryo-EM structure; complex of PLCγ1 and FGFR1-1P (mixed 1:10, purified by SEC), cross-linked with BS3 and purified again; 0.6 mg/ml on grids; 25 mM HEPES, 150 mM NaCl, 2 mM TCEP, pH 7.5; no ATP; Titan Krios with Volta phase plate; map at 5–8 Å with known domain structures docked as rigid bodies. The settings on record: both partners purified. (In gel filtration, larger molecules generally elute earlier.)

For orientation: Kd means a measure of binding affinity in units of concentration.

“FGFR1 intracellular portion (from UniProt P11362)”: the Kd in experiment [1] was 5 nM.

B1: Human FGFR1 kinase domain (456–774, L457V, Y463F, C488A, Y583F, C584S, Y585F, Y653F and Y654F), FGFR1-1P (domain or fragment, UniProt P11362 456-774, looked up)
chain: MVAGVSEFELPEDPRWELPRDRLVLGKPLGEGAFGQVVLAEAIGLDKDKPNRVTKVAVKMLKSDATEKDLSDLISEMEMMKMIGKHKNIINLLGACTQDGPLYVIVEYASKGNLREYLQARRPPGLEFSFNPSHNPEEQLSSKDLVSCAYQVARGMEYLASKKCIHRDLAARNVLVTEDNVMKIADFGLARDIHHIDFFKKTTNGRLPVKWMAPEALFDRIYTHQSDVWSFGVLLWEIFTLGGSPYPGVPVEELFKLLKEGHRMDKPSNCTNELYMMMRDCWHAVPSQRPTFKQLVEDLDRIVALTSNQEYLDLSMPLD
modifications: phosphotyrosine at 766 (pY766; FGFR1-1P)
notes: The methods call the protein in the complex FGFR1-1P, and the results speak of pY766 in its C-terminal tail; How the phosphorylation was made is not described here; also called FGFR1int; FGFRint; source: E. coli C41 (DE3), purified (HisTrap, Ulp1 cleavage, HiTrap Q, Superdex 75); not shown: His tag, N-terminal, cleaved; SUMO (from the vector pOPINS, cut by Ulp1), N-terminal, cleaved
B1: in experiment [2], the binding result is “binds”.
